Source: paper PMC11784142, “About bacteriophage tail terminator and tail completion proteins: structure of the proximal extremity of siphophage T5 tail” (Journal of Virology, 2024)

B1: tail terminator protein p142 of bacteriophage T5 (natural protein, UniProt Q6QGE1 1-161, looked up)
chain: MDHRTSIAQAMVDRISKQMDGSQPDEYFNNLYGNVSRQTYKFEEIREFPYVAVHIGTETGQYLPSGQQWMFLELPILVYDKEKTDIQEQLEKLVADIKTVIDTGGNLEYTVSKPNGSTFPCEATDMIITSVSTDEGLLAPYGLAEINVTVRYQPPRRSLRR
notes: tail terminator protein p142 (TrP) of bacteriophage T5; a 161-residues protein; model compared over 156 residues; Native phage-encoded protein as it stands in the purified tail; hexameric ring that caps the tail tube; also called TrP_(p142); Trp_(p142); source: E. coli strain F infected with the mutant phage T5D20am30d; part of purified T5 tails (PEG precipitation, glycerol step gradient, ion …)
B2: tail completion protein p143 of bacteriophage T5 (natural protein, UniProt Q6QGE0 1-255, looked up)
chain: MSLSDLARQIIKEQLDTASRSENNKNTVVYSVETGLKDPTRDGTVAQVSFKFSKPVSQDLLNIRTASILKAVSSSLDLSGDLGALENLIQATAGKKSSVGKKRSTGRVQVNFGDPSDVEDGYSGAVTGASGRFVSNSNMKIILEIVAKEYLIKDMKKAGAPLKFRTGRFANSLKIKDVMLRDSETSKGSPELNVTYNYMTRPYSVFNPAVSTYRRLSLRPYPGARNPQKLIGEAIAKAARDLIHSRYKIKVNQGT
notes: tail completion protein p143 (TCP) of bacteriophage T5; 27.8 kDa, 255 residues; Native protein of the purified tail; the density was assigned to it by the fit of an AlphaFold2 model and because it was the only tail protein not yet localised; also called TCP_(p143); Neck1; source: E. coli strain F infected with the mutant phage T5D20am30d; part of purified T5 tails
B3: Baseplate Hub Protein pb3 of bacteriophage T5 (natural protein, UniProt Q6QGE9 1-949, looked up)
chain: MKKILDSAKNYLNTHDKLKTACLIALELPSSSGSAATYIYLTDYFRDVTYNGILYRSGKVKSISSHKQNRQLSIGSLSFTITGTAEDEVLKLVQNGVSFLDRGITIHQAIINEEGNILPVDPDTDGPLLFFRGRITGGGIKDNVNTSGIGTSVITWNCSNQFYDFDRVNGRYTDDASHRGLEVVNGTLQPSNGAKRPEYQEDYGFFHSNKSTTILAKYQVKEERYKLQSKKKLFGLSRSYSLKKYYETVTKEVDLDFNLAAKFIPVVYGVQKIPGIPIFADTELNNPNIVYVVYAFAEGEIDGFLDFYIGDSPMICFDETDSDTRTCFGRKKIVGDTMHRLAAGTSTSQPSVHGQEYKYNDGNGDIRIWTFHGKPDQTAAQVLVDIAKKKGFYLQNQNGNGPEYWDSRYKLLDTAYAIVRFTINENRTEIPEISAEVQGKKVKVYNSDGTIKADKTSLNGIWQLMDYLTSDRYGADITLDQFPLQKVISEAKILDIIDESYQTSWQPYWRYVGWNDPLSENRQIVQLNTILDTSESVFKNVQGILESFGGAINNLSGEYRITVEKYSTNPLRINFLDTYGDLDLSDTTGRNKFNSVQASLVDPALSWKTNSITFYNSKFKEQDKGLDKKLQLSFANITNYYTARSYADRELKKSRYSRTLSFSVPYKFIGIEPNDPIAFTYERYGWKDKFFLVDEVENTRDGKINLVLQEYGEDVFINSEQVDNSGNDIPDISNNVLPPRDFKYTPTPGGVVGAIGKNGELSWLPSLTNNVVYYSIAHSGHVNPYIVQQLENNPNERMIQEIIGEPAGLAIFELRAVDINGRRSSPVTLSVDLNSAKNLSVVSNFRVVNTASGDVTEFVGPDVKLAWDKIPEEEIIPEIYYTLEIYDSQDRMLRSVRIEDVYTYDYLLTYNKADFALLNSGALGINRKLRFRIRAEGENGEQSVGWATI
notes: Baseplate Hub Protein pb3 (BHP) of bacteriophage T5; Native protein of the purified tail tip; trimer; also called BHPpb3; source: E. coli strain F infected with the mutant phage T5D20am30d; part of purified T5 tails
B4: tail tube protein pb6 of bacteriophage T5 (natural protein, UniProt Q6QGE2 1-464, looked up)
chain: MSLQLLRNTRIFVSTVKTGHNKTNTQEILVQDDISWGQDSNSTDITVNEAGPRPTRGSKRFNDSLNAAEWSFSTYILPYKDKNTSKQIVPDYMLWHALSSGRAINLEGTTGAHNNATNFMVNFKDNSYHELAMLHIYILTDKTWSYIDSCQINQAEVNVDIEDIGRVTWSGNGNQLIPLDEQPFDPDQIGIDDETYMTIQGSYIKNKLTILKIKDMDTNKSYDIPITGGTFTINNNITYLTPNVMSRVTIPIGSFTGAFELTGSLTAYLNDKSLGSMELYKDLIKTLKVVNRFEIALVLGGEYDDERPAAILVAKQAHVNIPTIETDDVLGTSVEFKAIPSDLDAGDEGYLGFSSKYTRTTINNLIVNGDGATDAVTAITVKSAGNVTTLNRSATLQMSVEVTPSSARNKEVTWAITAGDAATINATGLLRADASKTGAVTVEATAKDGSGVKGTKVITVTAGG
notes: tail tube protein pb6 (TTP) of bacteriophage T5; structures compared over the 464 residues; Native phage-encoded protein as it stands in the purified tail; trimeric ring (last ring of the tube, under the p142 ring); also called TTPpb6; source: E. coli strain F infected with the mutant phage T5D20am30d; part of purified T5 tails (PEG precipitation, glycerol step gradient, ion exchange)
B5: distal tail protein pb9 of bacteriophage T5 (natural protein, UniProt Q6QGE8 1-204, looked up)
chain: MRLPDPYTNPEYPGLGFESVNLVDNDPMIRDELPNGKVKEVKISAQYWGINISYPELFPDEYAFLDSRLLEYKRTGDYLDVLLPQYEAFRVRGDTKSVTIPAGQKGSQIILNTNGTLTGQPKAGDLFKLSTHPKVYKITNFSSSGNVWNISLYPDLFITTTGSEKPVFNGILFRTKLMNGDSFGSTLNNNGTYSGISLSLRESL
notes: distal tail protein pb9 (DTP) of bacteriophage T5; Native protein of the purified tail tip; hexamer; also called DTPpb9; source: E. coli strain F infected with the mutant phage T5D20am30d; part of purified T5 tails

How the values were obtained:
[1] = target: the molecule itself; assay: cryo-EM structure; proximal extremity of native T5 tails (assembled in infected E. coli, purified as whole tails); single particle analysis, C3 symmetry imposed, 3.88 Å
[2] = target: B3; assay: cryo-EM structure; tail tip of native purified T5 tails; particles recentred on the lower part of BHPpb3, symmetry relaxation, no symmetry imposed; 6–10 Å in the area of the additional density; AlphaFold2 model of TCP_(p143) flexibly fitted; conditions: partners not purified
[3] = target: the molecule itself; assay: as above

| Binder | stoichiometry N [1] | stoichiometry N [3] | also measured |
| --- | --- | --- | --- |
| B1 | 6 |  |  |
| B2 |  |  | stoichiometry N [2]: 1 copy per phage |
| B3 |  | 3 |  |
| B4 | 3 |  |  |
| B5 |  | 6 |  |
